From the PETadex activity labels (doi:10.1101/2025.08.30.673199) come the findings set out here.

B1: unnamed (protein)
chain: MKAPLFKLAAFTLGVSLSSVALATNPGGGGAGSNPDTGTGFPGVSSFSADGSFATTSGSAGLSCTVFRPSTLGANGLKHPIIVWGNGTTASPSTYSGILEHWASHGFVVIAANTSNAGTGQDMLNCVDYLTTQNNRSTGTYANKLDLNRIGAAGHSQGGGGTIMAGQDYRIKVTAPFQPYTIGLGHNSSSQSNQNGPMFLMTGSADTIASPTLNALPVYNRANVPVFWGELSGASAFEPVGSAGDFRGPSTAWFRYHLMDDASAEDTFYGSNCDLCTDNDWDVRRKGIN
B2: unnamed (protein)
chain: MKAPLFKLAAFTLGVSLSSVALATNPGGGGAGSNPDTGTGFPGVSSFSADGSFATTSGSAGLSCTVFRPSTLGANGLKHPIIVWGNGTTASPSTYSGILEHWASHGFVVIAANTSNAGTGQDMLNCVDYLTTQNNRSTGTYANKLDLNRIGAAGHSQGGGGTIMAGQDYRIKVTAPFQPYTIALGHNSSSQSNQNGPMFLMTGSADTIASPTLNALPVYNRANVPVFWGELSGASHFEPVGSAGDFRGPSTAWFRYHLMDDASAEDTFYGSNCDLCTDNDWDVRRKGIN
B3: unnamed (protein)
chain: MKAPLFKLAAFTLGVSLSSVALATNPGGGGAGSNPDTGTGFPGVSSFSADGSFATTSGSAGLSCTVFRPSTLGANGLKHPIIVWGNGTTASPSTYSGILEHWASHGFVVIAANTSNAGTGQDMLNCVDYLTTQNNRSTGTYANKLDLNRIGAAGHSQGGGGTIMAGQDYRIKVTAPFQPYTIGLGHNSSSQSNQNGPMFLMTGSADTIASPTLNALPVYNRANVPVFWGELSGASHIEPVGSAGDFRGPSTAWFRYHLMDDASAEDTFYGSNCDLCTDNDWDVRRKGIN
B4: unnamed (protein)
chain: MKAPLFKLAAFTLGVSLSSVALATNPGGGGAGSNPDTGTGFPGVSSFSADGSFATTSGSAGLSCTVFRPSTLGANGLKHPIIVWGNGTTASPSTYSGILEHWASHGFVVIAANTSNAGTGQDMLNCVDYLTTQNNRSTGTYANKLDLNRIGAAGHSQGGGGTIMAGQDYRIKVTAPFQPWTIGLGHNSSSQSNQNGPMFLMTGSADTIASPTLNALPVYNRANVPVFWGELSGASHFEPVGSAGDFRGPSTAWFRYHLMDDASAEDTFYGSNCDLCTDNDWDVRRKGIN

Substrate in the series: PET
Description: Proxy for plastic degradation [Released monomer concentration (HPLC/LC-MS) (TPA+MHET+BHET)]. Conditions: pH 9.
In the case of B1, the “Proxy for plastic degradation” value was found to be 10 µM.
On to B2, for which the “Proxy for plastic degradation” value is 600 µM.
Then B3, with 1280 µM; and B4, with 195 µM.
